The results in this text go back to patent US20160279079A1, “COMPOSITIONS AND METHODS FOR TREATING BONE DISEASES” (INDIANA UNIVERSITY RESEARCH AND TECHNOLOGY CORPORATION, priority 2013, published 2016).

In test [1] the test system is NFATc1. As to the kind of experiment: Western immunoblotting, NFATc1 expression in RAW264.7 cells. The note with it: 24 h. The test is classed as cell-based, mouse. How it is done:
METHOD EXAMPLE. Downregulation of NFATcl in RAW264.7 cells by salubrinal. NFATcl is a transcription factor critical for activating osteoclastogenesis. […] The RANKL-induced expression of NFATcl was reduced by administration of 5-20 μM salubrinal on both days, and the effect of salubrinal was dose dependent (FIG. 4).
(§1) METHOD EXAMPLE. Reduction of RANKL-induced NFATcl, c-Fos, TRAP, and OSCAR by guanabenz. […] The normalized level of “1” was defined as the level for the cells that were not treated with RANKL without administration of guanabenz.
METHOD EXAMPLE. Western Immunoblotting. Cells were lysed in a radioimmunoprecipitation assay (RIPA) buffer containing protease inhibitors (Santa Cruz Biotechnology, Santa Cruz, Calif., USA) and phosphatase inhibitors (Calbiochem, Billerica, Mass., USA). Isolated proteins were fractionated using 10-15% SDS gels and electro-transferred to Immobilon-P membranes (Millipore, Billerica, Mass., USA). The membrane was incubated for 1 h with primary antibodies followed by 45 min incubation with goat anti-rabbit or anti-mouse IgG conjugated with horseradish peroxidase (Cell Signaling, Danvers, Mass., USA). We used antibodies against ATF4, NFATcl (Santa Cruz), p-eIF2α (Thermo Scientific, Waltham, Mass., USA), eIF2α, caspase 3, cleaved caspase 3, p38 and p-p38 mitogen activated protein kinase (MAPK), extracellular signal-regulated kinase (ERK) and p-ERK, nuclear factor kappa B (NFκB) p65 and p-NFκB p65 (Cell Signaling), and β-actin (Sigma). Protein levels were assayed using a SuperSignal west femto maximum sensitivity substrate (Thermo Scientific), and signal intensities were quantified with a luminescent image analyzer (LAS-3000, Fuji Film, Tokyo, Japan).
METHOD EXAMPLE. Temporal profile of p-eIF2α and NFATcl. […] Note that the normalized level of “1” in FIG. 6C was defined as the level for the cells that were not treated with RANKL without administration of guanabenz.

For test [2], the system named is c-Fos. As to the kind of experiment: Quantitative real-time PCR, c-Fos mRNA in RAW264.7 cells. Format: cell-based, mouse. The note with it: day 2. As to the method: (§2) METHOD EXAMPLE. Quantitative real-time PCR. Total RNA was extracted using an RNeasy Plus mini kit (Qiagen, Germantown, Md., USA). Reverse transcription was conducted with high capacity cDNA reverse transcription kits (Applied Biosystems, Carlsbad, Calif., USA), and quantitative real-time PCR was performed using ABI 7500 with Power SYBR green PCR master mix kits (Applied Biosystems). We evaluated mRNA levels of ATF4, Osteocalcin (OCN), NFATcl, c-Fos, tartrate-resistant acid phosphatase (TRAP), and osteoclast-associated receptor (OSCAR) with the PCR primers listed in Table 1. GAPDH was used for internal control. The relative mRNA abundance for the selected genes with respect to the level of GAPDH mRNA was expressed as a ratio of Streated/Scontrol, where Streated=mRNA level for the cells treated with chemical agents, and Scontrol=mRNA level for control cells.
(§3) METHOD EXAMPLE. Partial suppression of mRNA levels of NFATcl, c-Fos, TRAP, and OSCAR by salubrinal. […] On day 2, for instance, the RANKL-driven increase was 9.4±0.5 fold (NFATcl), 1.9±0.1 fold (c-fos), 165±4.2 fold (TRAP), and 467±22 fold (OSCAR). The reduction by 20 μM salubrinal was 46% (NFATcl), 32% (c-fos), 35% (TRAP), and 21% (OSCAR) (FIG. 5A).
as §1

The test system of test [3] is RAW264.7 mouse pre-osteoclast (monocyte/macrophage) cells. As to the kind of experiment: Cell mortality and live cell numbers (trypan blue, hemacytometer). Format: cell-based. The note with it: incubation with RANKL (20 ng/ml), 24 h. How it is done:
METHOD EXAMPLE. Cell culture. MC3T3 E1 mouse osteoblast-like cells (clone 14—MC3T3 E1-14; and no clonal cells in supplementary figures), and RAW264.7 mouse pre-osteoclast (monocyte/macrophage) cells were cultured in αMEM containing 10% fetal bovine serum and antibiotics (50 units/ml penicillin, and 50 μg/ml streptomycin; Life Technologies, Grand Island, N.Y., USA). Cells were maintained at 37° C. and 5% CO2 in a humidified incubator. Cell mortality and live cell numbers were determined 24 h after the treatment with 20 ng/ml RANKL (PeproTech, Rocky Hills, N.C., USA) in response to 0.1-20 μM salubrinal or 1-20 μM guanabenz acetate (Tocris Bioscience, Ellisville, Mo., USA). Cells were stained with trypan blue and the numbers of live and dead cells were counted using a hemacytometer.
METHOD EXAMPLE. Inhibition of osteoclastogenesis of RAW264.7 cells by salubrinal. The primary aim of this study is to evaluate the effects of salubrinal on osteoclastogenesis. In response to 0.1-20 μM salubrinal for 24 h, cell mortality and live cell numbers of RAW264.7 pre-osteoclasts was examined. […] The number of live cells was increased by ˜50% by incubation with RANKL, and administration of 10-20 μM salubrinal reduced the numbers approximately by 10% (FIG. 3B).
METHOD EXAMPLE. Inhibitory effects of guanabenz on osteoclastogenesis of RAW264.7 cells. To further examine a potential involvement of p-eIF2α in regulation of osteoclastogenesis, we employed guanabenz that also acts as an inhibitor of de-phosphorylation of eIF2α was evaluated. […] Compared to the number of TRAP-positive multi-nucleated cells of 377 39 (RANKL only), guanabenz reduced the number of differentiated osteoclasts to 364±38 (1 μM), 288±51 (5 μM), 189±25 (10 μM), and 73±16 (20 μM).

In test [4] the test system is NFATc1. Kind of test: Quantitative real-time PCR, NFATc1 mRNA in RAW264.7 cells. Format: cell-based, mouse. The conditions noted are these: day 2. How it is done:
as §2, §3, §1

Test [5] relates to tartrate-resistant acid phosphatase (TRAP). As to the kind of experiment: Quantitative real-time PCR, TRAP mRNA in RAW264.7 cells. The test is classed as cell-based, mouse. The conditions noted are these: day 2. As to the method:
as §2, §3, §1

Test [6] deals with osteoclast-associated receptor (OSCAR). As to the kind of experiment: Quantitative real-time PCR, OSCAR mRNA in RAW264.7 cells. The conditions noted are these: day 2. Format: cell-based, mouse. As to the method: as §2, §3, §1

B1: RANKL: cytokine belonging to the tumor necrosis factor family; stimulus for osteoclast differentiation (PeproTech) (protein, UniProt O14788 140-317, looked up)
Tumor necrosis factor ligand …: IRAEKAMVDGSWLDLAKRSKLEAQPFAHLTINATDIPSGSHKVSLSSWYHDRGWAKISNMTFSNGKLIVNQDGFYYLYANICFRHHETSGDLATEYLQLMVYVTKTSIKIPSSHTLMKGGSTKYWSGNSEFHFYSINVGGFFKLRSGEEISIEVSNPSLLDPDQDATYFGAFKVRDID
On to B1, for which, in test [1], the “elevation of NFATc1 by addition of RANKL” value is on record as 13.4±3.2 fold. The “RANKL-driven increase of c-fos mRNA level” value in test [2] is given as 1.9±0.1 fold. Moreover, in test [3], the “increase of the number of live cells” value is approximately 50%. In addition, the “RANKL-driven increase of NFATc1 mRNA level” value in test [4] is 9.4±0.5 fold. The “RANKL-driven increase of TRAP mRNA level” value in test [5] is given as 165±4.2 fold. The “RANKL-driven increase of OSCAR mRNA level” value in test [6] worked out at 467±22 fold.
